Results from US20200129634A1.
Values belong to the binder of their own block, whether it stands above or below them. Non-standard residues stand in square brackets, D forms with d. No end group written: not given here.

How the values were obtained:
D35 (D39(A13K/A16K)) = assay: RP-HPLC temperature profiling 5-77 C, pH 2, self-association (dimerization/oligomerization) relative to random coil control RC
human serum proteins = assay: cell-based or functional assay
D84 (D33(A1K)) [1] = assay: RP-HPLC temperature profiling (0.25% B/min gradient), Mix 4, self-association relative to RC
D84 (D33(A1K)) [2] = assay: RP-HPLC temperature profiling (0.25% B/min gradient), Mix 2, self-association relative to RC
D84 (D33(A1K)) [3] = assay: RP-HPLC temperature profiling (0.25% B/min gradient), Mix 3, self-association relative to RC
D84 (D33(A1K)) [4] = assay: RP-HPLC temperature profiling (0.25% B/min gradient), Mix 1, self-association relative to RC
D36 (D40(A13K/A16K)) = assay: RP-HPLC temperature profiling 5-77 C, pH 2, self-association (dimerization/oligomerization) relative to random coil control RC
D34 (D38(A13K/A16K)) = assay: as above

PA (self-association parameter) (D35 (D39(A13K/A16K))): 5.5 min | MIC against A. baumannii strain 649 in 25% human serum (no serum: 0.4) (human serum proteins): 1.4 µM
B1: D35 (D39(A13K/A16K)) (peptide)
peptide: [dA][dL][dK][dS][dL][dL][dA][dT][dL][dS][dK][dA][dK][dK][dK][dK][dL][dK][dT][dL][dL][dA][dA][dL][dS][dK]-NH2
modifications: N-terminus assumed
SMILES: CC(C)C[C@@H](NC(=O)[C@@H](C)N)C(=O)N[C@H](CCCCN)C(=O)N[C@H](CO)C(=O)N[C@H](CC(C)C)C(=O)N[C@H](CC(C)C)C(=O)N[C@H](C)C(=O)N[C@@H](C(=O)N[C@H](CC(C)C)C(=O)N[C@H](CO)C(=O)N[C@H](CCCCN)C(=O)N[C@H](C)C(=O)N[C@H](CCCCN)C(=O)N[C@H](CCCCN)C(=O)N[C@H](CCCCN)C(=O)N[C@H](CCCCN)C(=O)N[C@H](CC(C)C)C(=O)N[C@H](CCCCN)C(=O)N[C@@H](C(=O)N[C@H](CC(C)C)C(=O)N[C@H](CC(C)C)C(=O)N[C@H](C)C(=O)N[C@H](C)C(=O)N[C@H](CC(C)C)C(=O)N[C@H](CO)C(=O)N[C@H](CCCCN)C(N)=O)[C@H](C)O)[C@H](C)O

PA (self-association parameter) (D84 (D33(A1K)) [1]): 6.8 min | PA (self-association parameter) (D84 (D33(A1K)) [2]): 6.8 min | PA (self-association parameter) (D84 (D33(A1K)) [3]): 6.8 min | PA (self-association parameter) (D84 (D33(A1K)) [4]): 6.8 min
B2: D84 (D33(A1K)) (peptide)
peptide: Ac-KLKSLLKTLSKAKAAKLKTLLKALSK-NH2
modifications: not fully specified; also: D-enantiomeric residues, extent not given here

PA (self-association parameter) (D36 (D40(A13K/A16K))): 5.6 min | MIC against A. baumannii strain 649 in 25% human serum (no serum: 0.4) (human serum proteins): 0.7 µM
B3: D36 (D40(A13K/A16K)) (peptide)
peptide: [dA][dL][dA][dS][dL][dL][dK][dT][dL][dS][dK][dA][dK][dK][dK][dK][dL][dK][dT][dL][dL][dK][dA][dL][dS][dA]-NH2
modifications: N-terminus assumed
SMILES: CC(C)C[C@@H](NC(=O)[C@@H](C)N)C(=O)N[C@H](C)C(=O)N[C@H](CO)C(=O)N[C@H](CC(C)C)C(=O)N[C@H](CC(C)C)C(=O)N[C@H](CCCCN)C(=O)N[C@@H](C(=O)N[C@H](CC(C)C)C(=O)N[C@H](CO)C(=O)N[C@H](CCCCN)C(=O)N[C@H](C)C(=O)N[C@H](CCCCN)C(=O)N[C@H](CCCCN)C(=O)N[C@H](CCCCN)C(=O)N[C@H](CCCCN)C(=O)N[C@H](CC(C)C)C(=O)N[C@H](CCCCN)C(=O)N[C@@H](C(=O)N[C@H](CC(C)C)C(=O)N[C@H](CC(C)C)C(=O)N[C@H](CCCCN)C(=O)N[C@H](C)C(=O)N[C@H](CC(C)C)C(=O)N[C@H](CO)C(=O)N[C@H](C)C(N)=O)[C@H](C)O)[C@H](C)O

PA (self-association parameter) (D34 (D38(A13K/A16K))): 5.7 min | MIC against A. baumannii strain 649 in 25% human serum (no serum: 0.2) (human serum proteins): 1.4 µM
B4: D34 (D38(A13K/A16K)) (peptide)
peptide: [dA][dL][dK][dS][dL][dL][dK][dT][dL][dS][dA][dA][dK][dK][dK][dK][dL][dA][dT][dL][dL][dK][dA][dL][dS][dK]-NH2
modifications: N-terminus assumed
SMILES: CC(C)C[C@@H](NC(=O)[C@@H](C)N)C(=O)N[C@H](CCCCN)C(=O)N[C@H](CO)C(=O)N[C@H](CC(C)C)C(=O)N[C@H](CC(C)C)C(=O)N[C@H](CCCCN)C(=O)N[C@@H](C(=O)N[C@H](CC(C)C)C(=O)N[C@H](CO)C(=O)N[C@H](C)C(=O)N[C@H](C)C(=O)N[C@H](CCCCN)C(=O)N[C@H](CCCCN)C(=O)N[C@H](CCCCN)C(=O)N[C@H](CCCCN)C(=O)N[C@H](CC(C)C)C(=O)N[C@H](C)C(=O)N[C@@H](C(=O)N[C@H](CC(C)C)C(=O)N[C@H](CC(C)C)C(=O)N[C@H](CCCCN)C(=O)N[C@H](C)C(=O)N[C@H](CC(C)C)C(=O)N[C@H](CO)C(=O)N[C@H](CCCCN)C(N)=O)[C@H](C)O)[C@H](C)O
